Reference: patent EP2441771A1, “New 12alpha-hydroxysteroid dehydrogenase mutants, method for their manufacture and application thereof” (PharmaZell GmbH, priority 2010, dated 2012)

Experiments:
[1] = tested on: NC(=O)c1ccc[n+]([C@@H]2O[C@H](COP(=O)([O-])OP(=O)(O)OC[C@H]3O[C@@H](n4cnc5c(N)ncnc54)[C@H](OP(=O)(O)O)[C@@H]3O)[C@@H](O)[C@H]2O)c1; assay: Enzyme kinetics (Michaelis-Menten) in microtiter plate photometer, cell lysate; type: biochemical, Clostridium sp. group P strain 48-50; details: other: WT; constant 10 mM Cholsäure, 2 µM to 100 µM NADP^+ (16 concentrations); nonlinear regression
Excerpt: (§1) Für jede der Mutanten sowie für das Wildtyp-Enzym wurden Kinetikmessungen im Mikrotiterplattenphotometer durchgeführt, indem die Umsatzraten der Enzyme sowohl mit gleichbleibenden Substratkonzentrationen bei variierten Kofaktorkonzentrationen als auch vice versa aufgezeichnet wurden. Zur Bestimmung der spezifischen Enzymaktivität wurden die Enzymkonzentrationen im Zelllysat densitometrisch bestimmt.
(§2) Zur Ermittlung der Abhängigkeit der Substratumsatzgeschwindigkeit von der Substratkonzentration wurde eine Kofaktorkonzentration von 100 µM NADP^+ eingesetzt, während die Substratkonzentration über einen Bereich von 6 µM bis 10 mM Cholsäure mit 32 verschiedenen Konzentrationen variiert wurde.
(§3) Zur Ermittlung der Abhängigkeit der Substratumsatzgeschwindigkeit von der Kofaktorkonzentration wurde eine Substratkonzentration von 10 mM Cholsäure bezogen auf das Reaktionsvolumen eingesetzt, während die Kofaktorkonzentration über einen Bereich von 2 µM bis 100 µM NADP^+ mit 16 verschiedenen Konzentrationen beim Wildtypprotein bzw. über einen Bereich von 2 µM bis 1000 µM NADP^+ mit 24 verschiedenen Konzentrationen bei den beiden Mutanten variiert wurde (jeweils bezogen auf den Raktionsansatz).
(§4) Über das eingesetzte Volumen an Zelllysat lässt sich die volumenbezogene Enzymaktivität berechnen. Zusammen mit den bestimmten Enzymkonzentrationen lassen sich die spezifischen Enzymaktivitäten berechnen. […]

[2] = tested on: C[C@H](CCC(=O)O)[C@H]1CC[C@H]2[C@@H]3[C@H](O)C[C@@H]4C[C@H](O)CC[C@]4(C)[C@H]3C[C@H](O)[C@]12C; assay: as above; type: biochemical, Clostridium sp. group P strain 48-50; details: other: WT; constant 100 µM NADP^+, 6 µM to 10 mM Cholsäure (32 concentrations); nonlinear regression
Excerpt: as §1, §2, §3, §4

Question: How did the Km [1] turn out when “12α-HSDH (WT), Wildtyp-Enzym, Clostridium sp. group P strain 48-50, SEQ ID NO:6 (Clostridium sp. ATCC 29733)” was run?
Answer: 21,4 ± 2,3 µM

Question: And the Km [2]?
Answer: 136 ± 12 µM
